Test results published in patent US20200181597A1, “Composition and Application of Arginine-depleting Agents for Cancer, Obesity, Metabolic Disorders, and Related Complications and Comorbidities” (THE HONG KONG POLYTECHNIC UNIVERSITY, priority 2018, published 2020).
“And” between values parts separate entries of the source, which are not always exact repeats. Equal values may be shown once.

Assays:
[1] = test system: mouse 3T3-L1 preadipocytes; experiment: 3T3-L1 preadipocyte differentiation (oil red O, qRT-PCR); assay type: cell-based; settings: for adipogenesis and lipogenesis in 3T3-L1 cells (oil red O): added to culture medium, 6 days of differentiation
Method: FIG. 23 illustrates that arginine depletion by adding N-ABD094-rhArg (SEQ ID NO: 50) (rhArg), bovine arginase or native arginine deiminase (ADI) to the culture medium, or using arginine-free medium inhibited the differentiation of mouse 3T3-L1 preadipocytes into adipocytes. […] (*The culture medium contains 0.4 mM L-arginine and can be converted into 0.4 mM L-ornithine and 0.4 mM urea by arginase, or 0.4 mM L-citrulline by ADI.). Cells grown in culture medium without addition of arginine depleting agents or metabolic products of arginase/ADI served as the control. Lipids in cells were stained with oil red O at 6 days after exposure to specific differentiation-inducing factors added to the medium.
FIG. 24 illustrates that N-ABD094-rhArg (SEQ ID NO: 50) could suppress adipogenic and lipogenic genes in 3T3-L1 preadipocytes. Mouse 3T3-L1 preadipocytes were cultured for 6 days in medium supplemented with specific factors to induce differentiation into adipocytes (differentiated). Cells grown in medium without these factors remained undifferentiated. The medium was added with 2U/mL N-ABD094-rhArg (SEQ ID NO: 50) (rhArg). Cells grown in medium without the addition of N-ABD094-rhArg served as the control. The mRNA expression levels of several crucial (A) transcriptional regulators of adipogenesis, and (B) enzymes in lipogenic pathways were determined by real-time qRT-PCR, and expressed relative to the undifferentiated (control) group, which is set as 1. *P<0.05, one-way ANOVA followed by Fisher's LSD. Data are expressed as mean±SEM, n=3 for each group.
FIG. 25 illustrates the response of 3T3-L1 preadipocytes to various concentrations of arginine Mouse 3T3-L1 preadipocytes were cultured in arginine-free medium with or without addition of varying concentrations of L-arginine for 6 days. Cells cultured in normal arginine-containing medium supplemented with differentiation inducing factors served as the positive (+ve) control of differentiation, while cells cultured in normal arginine-containing medium without supplementation of differentiation inducing factors served as the negative (−Ve) control of differentiation. One group of cells was cultured in normal arginine-containing medium supplemented with differentiation inducing factors and treated with 5U/mL N-ABD094-rhArg (SEQ ID NO: 50) (rhArg) to inhibit differentiation. (A) Cells were stained for lipids with oil red O, and staining intensity was quantified by measuring optical density, which is expressed as the percentage against the +ve control group. (B) The mRNA levels of several crucial lipogenesis related genes are expressed relative to cells cultured in arginine-free medium, which is set as 1. Data are expressed as mean±SEM, n=3 for each group.
To test the effect of N-ABD094-rhArg (SEQ ID NO: 50) on fat cells, mouse 3T3-L1 preadipocytes were used, which are commonly employed as cell-based model for studying adipogenesis [Green and Meuth, 1974, Cell 3:127-133].

[2] = test system: circulating arginine; settings: i.p., cited from earlier work
[3] = Arginase specific activity, DAMO colorimetric assay; assay type: biochemical; settings: 37° C., pH 7.4, purified preparation
Excerpt: The arginase activity of the fusion proteins described herein can be substantially the same, lower, or higher than the activity of the arginase polypeptide from which it is derived. One unit of arginase activity is defined as the amount of fusion protein [e.g., BHA (SEQ ID NO; 75), BAH (SEQ ID NO: 76), N-ABD-rhArg (SEQ ID NO: 49), or N-ABD094-rhArg (SEQ ID NO: 50)] or arginase [e.g., BCA (SEQ ID NO: 70)] that catalyzes the production of 1 μmol of urea per min under standard assay conditions. The specific activity of the enzyme is expressed as activity units per mg of protein. Under standard diacetylmonoxime (DAMO) assay conditions (37° C., pH 7.4), the fusion proteins can have a specific activity that is about 5%, about 10%, about 15%, about 20%, about 25% about 30%, about 35% or about 40% lower or higher than the corresponding arginase polypeptide which it incorporates. In certain embodiments, fusion proteins can have a specific activity that is about 5% to about 40%, about 10% to about 40%, about 10% to about 35%, about 10% to about 30%, about 20% to about 30%, about 20% to about 35%, about 15% to about 30%, about 15% to about 25%, or about 10% to about 20% lower or higher than the corresponding arginase polypeptide which it incorporates.
One unit of enzyme activity is defined as the amount of enzyme (BCA, BHA or BAH) that catalyzes the production of 1 μmol urea per min under standard assay conditions. Specific activity of the enzyme is expressed as activity units per mg of protein.
Briefly, a serial dilution of 0.3 mL BCA solutions together with 0.15 mL water and 720 mM arginine substrate at pH 7.4 was pre-incubated separately at 37° C. for 10 min. The enzymatic reaction was carried out by adding 0.3 mL arginine substrate to the pre-incubated enzyme solutions. […]
The urea formed from the above reaction was quantified using the DAMO direct colorimetric method described by World Health Organization (WHO). […] The absorbance at 540 nm was measured. […]

[4] = DIO mice treated with PEGylated His-rhArg; assay type: in vivo, C57BL/6J male mice
Method: Production of PEGylated His-rhArg (SEQ ID NO: 101) is described in Example 30. C57BL/6J male mice with pre-existing diet-induced obesity (DIO) received i.p. injection of 300U PEGylated His-rhArg [SEQ ID NO: 101], or saline as vehicle control, at 7-day intervals for 5 weeks, while continuously being fed a HFD. […] Regular monitoring of plasma arginine concentrations confirmed that arginine remained at levels below the detection limit of the Biochrom 30 Amino Acid Analyzer (3 μM) throughout the study.

[5] = test system: 4T1 breast cancer allograft; experiment: 4T1 breast cancer allograft study; assay type: in vivo, female nude mice; settings: 500U once per week
Method: In another 4T1 breast cancer allograft study, female nude mice (5-6 weeks of age) were used. They were kept in groups of five per cage and provided food and water ad libitum. Cells of 4T1 breast cancer ([…]) were injected subcultuaneously into the right flank of the mice. […] There were one control group (n=8) and three experimental groups, including 500U PEGylated His-rhArg (SEQ ID NO: 101) (n=8), 500U N-ABD-rhArg (SEQ ID NO: 49) (n=6) and 250U N-ABD-rhArg (SEQ ID NO: 49) (n=8). Mice in the control group were injected with 1×PBS weekly. For the 500U ABD-rhArg group and the 250U ABD-rhArg group, mice were injected with 500U and 250U ABD-rhArg once a week, respectively; one group was injected with 500U PEG-rhArg once per week. The mice were sacrificed after 24 days of inoculation (i.e. 14 days after starting of experiment) because of necrosis of tumor in PBS control group. After sacrificing, the mice were dissected. Tumors were collected from the mice and measured their weight. Lungs were also collected and washed with 1×PBS. The lungs were fixed in Bouin's solution overnight and washed with 1×PBS after fixation. Lung metastatic nodules were counted.

N=C(N)NCCC[C@H](N)C(=O)O [L-arginine]
threshold concentration for activation of Cebpa, Pparg and Scd1 ([1]; arginine-free medium supplemented with L-arginine, 6 days): 10 to 40 µM

NC(N)=O [urea]
adipogenesis and lipogenesis in 3T3-L1 cells (oil red O) [1]: could not inhibit

NC(=O)NCCC[C@H](N)C(=O)O [L-citrulline]
adipogenesis and lipogenesis in 3T3-L1 cells (oil red O) [1]: could not inhibit

NCCC[C@H](N)C(=O)O [L-ornithine]
adipogenesis and lipogenesis in 3T3-L1 cells (oil red O) [1]: could not inhibit

B1: PEGylated rhArg (conjugate, UniProt P05089 1-322, looked up)
Arginase-1: MSAKSRTIGIIGAPFSKGQPRGGVEEGPTVLRKAGLLEKLKEQECDVKDYGDLPFADIPNDSPFQIVKNPRSVGKASEQLAGKVAEVKKNGRISLVLGGDHSLAIGSISGHARVHPDLGVIWVDAHTDINTPLTTTSGNLHGQPVSFLLKELKGKIPDVPGFSWVTPCISAKDIVYIGLRDVDPGEHYILKTLGIKYFSMTEVDRLGIGKVMEETLSYLLGRKKRPIHLSFDVDGLDPSFTPATGTPVVGGLTYREGLYITEEIYKTGLLSGLDIMEVNPSLGKTPEEVTRTVNTAVAITLACFGLAREGNHKPIDYLNPPK
modifications: PEGylated
time circulating arginine below detection limit (3 μM) ([2]; 1,500 U per rat (6 U/g)): 6 days

B2: native rhArg: native recombinant human arginase (Tsui et al.) (protein, UniProt P05089 1-322, looked up)
Arginase-1: MSAKSRTIGIIGAPFSKGQPRGGVEEGPTVLRKAGLLEKLKEQECDVKDYGDLPFADIPNDSPFQIVKNPRSVGKASEQLAGKVAEVKKNGRISLVLGGDHSLAIGSISGHARVHPDLGVIWVDAHTDINTPLTTTSGNLHGQPVSFLLKELKGKIPDVPGFSWVTPCISAKDIVYIGLRDVDPGEHYILKTLGIKYFSMTEVDRLGIGKVMEETLSYLLGRKKRPIHLSFDVDGLDPSFTPATGTPVVGGLTYREGLYITEEIYKTGLLSGLDIMEVNPSLGKTPEEVTRTVNTAVAITLACFGLAREGNHKPIDYLNPPK
circulating arginine within 3 hour of injection ([2]; 7,500 U/rat): ~20 µM
time for arginine to return to basal level post-injection ([2]; 7,500 U/rat): ~2 days

B3: PEGylated His-rhArg (conjugate)
chain: MHHHHHHMSAKSRTIGIIGAPFSKGQPRGGVEEGPTVLRKAGLLEKLKEQECDVKDYGDLPFADIPNDSPFQIVKNPRSVGKASEQLAGKVAEVKKNGRISLVLGGDHSLAIGSISGHARVHPDLGVIWVDAHTDINTPLTTTSGNLHGQPVSFLLKELKGKIPDVPGFSWVTPCISAKDIVYIGLRDVDPGEHYILKTLGIKYFSMTEVDRLGIGKVMEETLSYLLGRKKRPIHLSFDVDGLDPSFTPATGTPVVGGLTYREGLYITEEIYKTGLLSGLDIMEVNPSLGKTPEEVTRTVNTAVAITLACFGLAREGNHKPIDYLNPPK
modifications: PEGylated; His-rhArg, Synthesized in Lab
Specific activity [3]: 245 U/mg
Specific activity ([3]; listed as PEGylated His-rhArg batch 3): 189 U/mg and 213 U/mg
bodyweight after treatment ([4]; 300U i.p. at 7-day intervals for 5 weeks, HFD continued): 30 g
weight of liver, kidney, pancreas and heart vs vehicle-treated DIO mice ([4]; 300U weekly): significantly lower
weight of fat pad at visceral and subcutaneous depots ([4]; 300U weekly, end of study): significantly reduced
plasma arginine concentrations throughout the study ([4]; 300U weekly, Biochrom 30 detection limit): < 3 µM
fasting blood glucose levels vs vehicle-treated DIO mice ([4]; two weeks after treatment): lower
insulin sensitivity (ITT) vs vehicle-treated DIO mice ([4]; two weeks after treatment): significant increase
growth of 4T1 solid tumor [5]: inhibited the growth of the aggressive 4T1 solid tumor significantly
metastasis nodules from the lungs vs control group [5]: very significantly reduced
